Experiment: purified protein yield per well (BCA); higher = higher soluble expression
How it was run: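 On an OT-2 robot, lysed cells were processed by binding protein to Ni-charged magnetic beads and releasing it with SUMO protease. Expression took place in E. coli C41(DE3), in 2 mL autoinduction cultures with 100 µg/mL kanamycin, for 2 h at 37 °C followed by 40 h at 18 °C. The Pierce Rapid Gold BCA kit was used to quantify purified protein yield in each well, with values under 25 ug (0.1 mg/mL) below the detection threshold.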

Sequence	purified protein yield per well
QENPFERGPDPTERSIEAPRGPFATATTTVARGGVQGFGGGTIYYPTDTSEGTFGAVAISPGFTESQSAISWYGQRLASQGFVVFTIDTNGIFDFPDQRGDQLLAALDYLTTHSTVADRIDADRLGVLGHSMGGGGSLSAVDERTELQAAIPLAPWHLNQNWSGVDVPTMIIGGETDFIAPVDTHAEPFYQSLPSSLDKAYLEMKGKGHFVTNSPNTVIAKFAISWLKRFIDNDTRYERFLCPAPSPDAEISEYRDTCPH [TEP078]	< 25 µg
QIGPAPTSASLNATAGPLAVSTSTVTVATGFGGGTIYYPSTAGQYGVIAISPGFTATQSSVAWLGRRLATHGFVVITIDTNTTLDQPASRATQLIAALNYVVNSASSTVRSRVDPNRRAVAGHSMGGGGALIAAENNPSLKASLPLTPWNLSSSFTQVRVPTLIVGSDGDAVAPVAVHARPFYASLPGTTYKAYAELNLATHFTPNSTNTPIGRYGVTWMKRFVDADTRYSSFLCGADHQAYATALVFDRYSQNCPY [ESM116]	< 25 µg
QIGPDPTSASLNATAGSFAVSTSNVTLARGFGGGTIYYPTTAGRYGVVAISPGFTATQSSIAWLGRRLATHGLVVITMNTNSTLDQPASRATQLMAALNYVVNSASSTVRARVDSTRLAVAGHSMGGGGALIAAEDNPTLKAALPLTPWNLSTSFTQVRVPTLIVGADGDTVASVAAHARPFYASLPASTFKAYAELNGATHFTPNSTNTPIGRYGVTWMKRFVDADTRYSPFLCGAAHTAYATALVFDRYNQNCPY [ESM068]	< 25 µg
QIGPDPTSSSLNATSGPFAVSTSNVVLARGFGGGTIYYPTTTGRYGVVAISPGFTATESSVAWLGRRLATHGLVVITINTNSTLDQPASRATQLMAALNHVVNSASSTVRSRVDSTRLAVAGHSMGGGGALIAAENNPTLKAALPLTPWNLSSSFTQVQVPTLIVGADGDSVASVAVHARPFYASLPATTFKAYAELNGASHFTPNSTNTPIGRYGTAWMKRFVDADSRYSPFLCGAPHEAYATALVFDRYNQNCPY [DP027]	< 25 µg
QIGPDPTSSSLNATSGPFAVSTSTVAIASGFGGGTIYYPTTTGQYGVIAVSPGFTATQSSIAWLGRRLATHGFVVITIDTLTTLDQPASRATQLVAALNYVVNSATSTVRSRVDSSKRAVAGHSMGGGGALIAAQNNPGLKASLPLTPWNLSTNFSQNQVPTLIFGSDGDTVAPVAVHSRPFYASLPSSTYKAYAELNLATHFTPNSTNTPIGRYGVAWMKRFIDSDTRYSAFLCGAEHQAYATALVFDRYNQNCPY [ESM113]	< 25 µg
QNCDSLLLESITNPGPYSVNDIDESAGIRNGSDYSGSTIYYPVNSNGNYASIVLVPGYMNTESTIQNWGPFLASHGIVTMTIGTNSLTDNHIQRKDALLDAIISLKNENNRLASPLYAKLATTTIAVGGFSKGGGGAQLAAVDAPDLKAVVALYPWLDNPSQSDLNHNIPVIIVSGELDLIAPPSSHADVHYDYTPNTTNKLKYEVEFASHDALSGPTGGNGEVGKRVFSWLQTYLLDDSCYCPLMLVPATTSSEYITNIVCDNVTQVSEFSYANKKLIKVIDLLGREAKENKNTPLFYIYDDGTVEKKIIIE [TEP087]	< 25 µg
QNCGNISLNNITNPGPYGYLTMDQNDGLRDGPDYGNATVYYPTNTTTPFACVSIVPGFFSTQSSVAAWGPFLASHGIVSIIFDTNSLFDSPADRADGLLDALETMRQENTRTASPLFGLIDESRFGVMGWSMGGGGAQLAAVIDPSLKAVIALCPWLNSPNSNTLNHTVPVLILSGELDPTAPPDLHADVHFDLTPNTTDKLLFEVDGGDHSIANDPANAQGDIGKYGLAWLRNYLLDDPCHCPLVLLPSTETSNTMTNVVCPPTLACPIQLTLFNNLIADGTYKAIQTVTSASMVPLSGNVSLKAEQSIFLDCGFSVDSGAAFEAVIQICN [TEP048]	< 25 µg
QNPFERGPAPTTASLEASRGPFATSSFTVSRPSGYGAGTVYYPTNAGGTVGAIAIVPGYTARQSSINWWGPRLASHGFVVITIDTNSTLDQPSSRSRQQLAALDQVATLARTSSSPIYNKVDTTRMGVMGWSMGGGGSLISAENRPSLKAAAPQAPWNSSTNFSSVTVPTLIFACENDSIAATGSHASPMYNSMSRNPKQYLEINGGSHSCANSGNSNQALIGKKGVAWMKRYMDNDTRYTSFACANPNSTRVSDFRVARCS [ESM086]	< 25 µg
QNPYERGPAPSTASLEASRGPFATSSFTVSRPSGYGAGTVYYPTNAGGTVGAIAIVPGYTARQSSINWWGPRLASHGFVVITIDTNSTSDQPASRSRQQLAALDQVATLNSTSSSPIYNKVDTSRMGVMGWSMGGGGSLISAQNRSSLKAAAPQAPWNSSTNFSSVTVPTLIFACESDAIARVGSHASPMYNSMTRNPKQFMEIEGGSHSCANSGNSNQALIGKKGVAWMKRFMDNDTRYTSFACSNPNSTRVSDFRVARCS [ESM114]	< 25 µg
QNPYERGPAPTTSSLEASRGPFSTSSFTVSRPSGYGAGTVYYPTNAGGTVGAIAIVPGFTARQSSINWWGPRLASHGFVVITIDTNSTLDQPASRSRQQLAALDQVATLARTSSSPIYNKVDTTRMGVMGWSMGGGGSLISAQNRPSLKAAAPQAPWNGSTSFGSVTVPTLIFACENDSIAPVGSHASPMYNSMTRNPKEFIEIDGGSHSCANSGNSNQALIGKKGVAWMKRFMDNDTRYTSFACANPNSTRVSDFRVARCS [ESM066]	< 25 µg
QPIDSLETLSIKEQSTITLPTTLATKIPLTEVPATKIPLTTTTSTSPTSNCIPDSVITAAELSATRDNGPFTVATKSVPRQLANGFGGGTIHYPTNAGDCGLLGGIAVIPGYVSYEASIKWWGPRLASWGFVVITIDTNSIYDDPDSRATQLSAALDHILSDSTVGAQIDSTRLGAIGWSMGGGGALQLATKRSDIRVIIPQTPYHDKDYGNMDTPALFITCQNDRIASNKKYSSPFYNNAAGAKMKIEIKNGSHFCPSYRFNEILLSKPGIAWMHRYINGDTRFDKFLCNNENYGNSPRISAYDYKDCG [TEP174]	< 25 µg
QQIGPNPTSAQLNATSGPFAVSSSNVLIASGFGGGTIYYPTQSGSYGVIAVCPGFTGTSSSISWFARRLATHGFVTIAMDTNTLLDQPDSRATQLRAALNYLINNSSSTIRSRINPNLRGVAGHSMGGGGTLIASASDSTLKVGIPLTPWNLSSLPFYSIRVPQLVFGADGDTIAPYAVHARPFYNAIPSTTKKAYALLQSASHFTPNTTDERIGRYGVAFAKRWVYNDTRYSTFLTGAEHNAYNNILRFQTYLHNGPY [DP062]	< 25 µg
QQTGPDPTSASLNATAGPFAVSTATVTSPVGFGGGTIYYPTIAGQYGVVALSPGFTATQSSVAWLGRRIATHGFVVVTINTNSTLDQPASRANQLIAALNYVANSASTTVRSRVDASRRAVGGHSMGGGGSLIAAQNNPSLKAILPLTPWNLSTNFSGVQVPTLIVGADGDAVAPVASHARPFYASLPSTVRKAYGELNMASHSTPTSGVNTPIGRYGVTWMKRFVDGDTRYSTFLCGAEHQAYATATVFDRYSQNCPY [ESM127]	< 25 µg
QSAGGNPYAIGPDPTASSLEASSGPFGYTSTTIPSSEATGYGGGTVYYPANVNIATGGIVVVPGYGATQSNISWWGPRLASNGFVVYTIDTTNIYDLPAQRAKEIMAAVAQLKTFSTTTGNEIYGKVDTNRIGIMGGSFGGGGTLIAETTHPQLKAAIPFVPKIASGNPDLSKITIPTLIIGCQEDQVAPPKSYAIPYYSAIPEQNHKAYLEISNGQHLCASTQGSDQNKPIIGKYGVAWMKRFIDNDSRYNPYLCGSPHQTDVSNSTVISGYKDTCPY [DP020]	< 25 µg
QSNPYARGPDPTTAALEASRGPFAFSSFSVTRPSGYGAGTVYYPTNAGGTVGAIAIVPGFFARQSSINWWGPRLASHGFVVITIDTNSTFDQPASRASQQMAALRQVATLAGTSSSPIYRKVDTARLGVMGWSMGGGGTLLAARDNPSLKAAAPQAPWNSSTTNFSSMTVPTLIIACESDSTAPTRSHAEPFYTSMSRNSKQYLEINNGSHSCANGGSNTGLLGKKGVAWMKRFMDEDRRYTSFACSNPNSSAVSDFRTANCS [ESM149]	< 25 µg
QSNPYQKGPDPTHASIEADGPYAVSTQALKGSGFGSGTVYSPNAAGSYALVAVCPGFVSAQSSIAQISRRLATHGFVVVTIDTNTIFDFPDSRSTQLLAALKAVAALSTGPAAGKIDTARQAVAGWSMGGGGTLLAAGSTPALKGAVAYAPWALNNNLKASKVPAAILGGTADIVAPPGIFADVFYKAIPAGSSKLLGIVKGADHFFSNTASQPASYTTVAWFKRFVDNDTRYGPFLNGDTRYSRFSYTGPF [TEP040]	< 25 µg
